Laboratory results from paper PMC5321513 (Structure (London, England : 1993), 2017).
Positions count from the first letter of the chain named. Read-outs that look alike come from different tables or passages of the source. [ ]: non-standard residue; d: D form. pS = N[C@@H](COP(=O)(O)O)C(=O)O

B1: pHSPB6(11-23) phosphopeptide (peptide, UniProt O14558 11-23, looked up)
peptide: H-WLRRA[pS]APLPGLS-OH
SMILES: CC(C)C[C@H](NC(=O)CNC(=O)[C@@H]1CCCN1C(=O)[C@H](CC(C)C)NC(=O)[C@@H]1CCCN1C(=O)[C@H](C)NC(=O)[C@H](COP(=O)(O)O)NC(=O)[C@H](C)NC(=O)[C@H](CCCNC(=N)N)NC(=O)[C@H](CCCNC(=N)N)NC(=O)[C@H](CC(C)C)NC(=O)[C@@H](N)Cc1c[nH]c2ccccc12)C(=O)N[C@@H](CO)C(=O)O
B2: pHSPB6 (1-149) (domain or fragment, human, UniProt O14558 1-149, looked up)
chain: MEIPVPVQPSWLRRASAPLPGLSAPGRLFDQRFGEGLLEAELAALCPTTLAPYYLRAPSVALPVAQVPTDPGHFSVLLDVKHFSPEEIAVKVVGEHVEVHARHEERPDEHGFVAREFHRRYRLPPGVDPAAVTSALSPEGVLSIQAAPA
modifications: phosphoserine at 16
B3: 14-3-3σ WT (1-231) (domain or fragment, human)
chain: GAMGSMERASLIQKAKLAEQAERYEDMAAFMKGAVEKGEELSCEERNLLSVAYKNVVGGQRAAWRVLSSIEQKSNEEGSEEKGPEVREYREKVETELQGVCDTVLGLLDSHLIKEAGDAESRVFYLKMKGDYYRYLAEVATGDDKKRIIDSARSAYQEAMDISKKEMPPTNPIRLGLALNFSVFHYEIANSPEEAISLAKTTFDEAMADLHTLSEDSYKDSTLIMQLLRDNLTLWT
B4: 14-3-3σ Clu3 (1-231) (domain or fragment, human)
chain: GPHMERASLIQKAKLAEQAERYEDMAAFMKGAVEKGEELSCEERNLLSVAYKNVVGGQRAAWRVLSSIEQKSNEEGSAAAGPEVREYREKVETELQGVCDTVLGLLDSHLIKEAGDAESRVFYLKMKGDYYRYLAEVATGDDKKRIIDSARSAYQEAMDISKKEMPPTNPIRLGLALNFSVFHYEIANSPEEAISLAKTTFDEAMADLHTLSEDSYKDSTLIMQLLRDNLTLWT
B5: 14-3-3σ Clu1 (1-231) (domain or fragment, human)
chain: B4 chain with A78E, A79E, A80K, K162A, K163A, E164A
B6: HSPB6 ACD (residues 72 to 149) (domain or fragment, human, UniProt O14558 72-149, looked up)
chain: GHFSVLLDVKHFSPEEIAVKVVGEHVEVHARHEERPDEHGFVAREFHRRYRLPPGVDPAAVTSALSPEGVLSIQAAPA
B7: full-length pHSPB6 (1-160) (natural protein, human, UniProt O14558 1-160, looked up)
chain: MEIPVPVQPSWLRRASAPLPGLSAPGRLFDQRFGEGLLEAELAALCPTTLAPYYLRAPSVALPVAQVPTDPGHFSVLLDVKHFSPEEIAVKVVGEHVEVHARHEERPDEHGFVAREFHRRYRLPPGVDPAAVTSALSPEGVLSIQAAPASAQAPPPAAAK
modifications: phosphoserine at 16
B8: pHSPB6 (7-153) (domain or fragment, human, UniProt O14558 7-153, looked up)
chain: VQPSWLRRASAPLPGLSAPGRLFDQRFGEGLLEAELAALCPTTLAPYYLRAPSVALPVAQVPTDPGHFSVLLDVKHFSPEEIAVKVVGEHVEVHARHEERPDEHGFVAREFHRRYRLPPGVDPAAVTSALSPEGVLSIQAAPASAQA
modifications: phosphoserine at 16

Legend:
[1] = target: T1, full-length human 14-3-3γ (human, UniProt P61981 1-247); experiment: ITC
T1 sequence (looked up): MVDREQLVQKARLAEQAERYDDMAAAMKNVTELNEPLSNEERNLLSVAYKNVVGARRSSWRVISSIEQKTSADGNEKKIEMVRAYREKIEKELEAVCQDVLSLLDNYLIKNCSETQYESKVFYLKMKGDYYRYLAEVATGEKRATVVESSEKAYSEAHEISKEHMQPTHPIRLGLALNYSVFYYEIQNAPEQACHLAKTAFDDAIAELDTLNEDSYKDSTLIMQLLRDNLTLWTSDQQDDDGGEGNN

14-3-3σ WT (1-231) [2] = target: B3; experiment: ITC
14-3-3σ WT (1-231) [3] = target: B3; experiment: other fluorescence titration
14-3-3σ Clu1 (1-231) [4] = target: B5; experiment: crystal structure
[5] = target: T2, full-length human 14-3-3ζ (human, UniProt P63104 1-245); experiment: SEC
T2 sequence (looked up): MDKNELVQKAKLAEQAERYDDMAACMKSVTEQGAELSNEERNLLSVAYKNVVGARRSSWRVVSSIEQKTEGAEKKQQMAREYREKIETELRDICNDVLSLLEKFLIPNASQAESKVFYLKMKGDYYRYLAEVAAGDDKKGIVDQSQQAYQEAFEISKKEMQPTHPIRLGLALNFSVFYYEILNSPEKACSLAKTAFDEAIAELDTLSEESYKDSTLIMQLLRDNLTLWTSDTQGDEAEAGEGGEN

14-3-3τ (1-230) = target: T3, 14-3-3τ (1-230) (human, UniProt P27348 1-230); experiment: SEC
T3 sequence: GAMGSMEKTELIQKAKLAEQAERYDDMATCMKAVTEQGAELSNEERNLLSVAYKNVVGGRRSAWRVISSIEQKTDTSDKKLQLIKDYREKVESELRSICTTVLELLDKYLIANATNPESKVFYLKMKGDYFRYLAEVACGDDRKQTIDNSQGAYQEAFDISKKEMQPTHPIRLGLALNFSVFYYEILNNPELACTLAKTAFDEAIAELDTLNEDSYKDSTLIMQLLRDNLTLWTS

14-3-3ε (1-232) = target: T4, 14-3-3ε (1-232) (human, UniProt P62258 1-232); experiment: SEC
T4 sequence: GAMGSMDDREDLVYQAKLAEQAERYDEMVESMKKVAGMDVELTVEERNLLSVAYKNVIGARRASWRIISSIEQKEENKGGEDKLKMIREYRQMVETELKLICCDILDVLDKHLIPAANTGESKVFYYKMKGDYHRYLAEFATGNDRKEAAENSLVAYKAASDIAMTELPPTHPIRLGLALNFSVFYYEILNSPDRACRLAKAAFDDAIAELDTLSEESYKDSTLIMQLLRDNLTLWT

14-3-3β (1-232) = target: T5, 14-3-3β (1-232) (human, UniProt P31946 1-232); experiment: SEC
T5 sequence: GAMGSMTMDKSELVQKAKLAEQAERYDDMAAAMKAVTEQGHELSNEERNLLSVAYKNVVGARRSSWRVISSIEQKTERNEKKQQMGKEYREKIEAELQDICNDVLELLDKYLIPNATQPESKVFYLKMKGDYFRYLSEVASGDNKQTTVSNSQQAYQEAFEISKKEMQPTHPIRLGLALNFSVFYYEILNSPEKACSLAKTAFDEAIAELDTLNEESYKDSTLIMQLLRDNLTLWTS

14-3-3η (1-235) = target: T6, 14-3-3η (1-235) (human, UniProt Q04917 1-235); experiment: SEC
T6 sequence: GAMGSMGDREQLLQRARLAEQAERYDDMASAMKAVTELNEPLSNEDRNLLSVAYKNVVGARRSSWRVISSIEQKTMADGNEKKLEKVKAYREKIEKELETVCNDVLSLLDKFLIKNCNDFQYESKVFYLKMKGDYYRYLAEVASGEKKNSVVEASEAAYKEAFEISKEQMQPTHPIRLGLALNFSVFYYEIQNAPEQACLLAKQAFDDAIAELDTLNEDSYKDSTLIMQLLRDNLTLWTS

[6] = target: T1, full-length human 14-3-3γ; experiment: SEC
14-3-3σ WT (1-231) [7] = target: B3; experiment: SEC
crystal structure = target: the molecule itself; experiment: crystal structure
14-3-3σ Clu1 (1-231) [8] = target: B5; experiment: crystal structure; remark: listed apart in the source

Q: Which Kd [1] does the source give for B1 here?
A: 2.3 ± 0.3 µM

Q: And the “stoichiometry N” value [1]?
A: 1

Q: And the Kd (14-3-3σ WT (1-231) [2])?
A: 6.3 ± 0.5 µM

Q: And the “stoichiometry N” value (14-3-3σ WT (1-231) [2])?
A: 1

Q: And the IC50 (14-3-3σ WT (1-231) [3])?
A: 28.9 ± 0.9 µM

Q: What about the Kd (14-3-3σ WT (1-231) [3]) of the same binder?
A: 5.2 ± 0.5 µM

Q: What does the source list for B2?
A: binding result (14-3-3σ Clu1 (1-231) [4]): binds; binding result [5]: binds; binding result (14-3-3τ (1-230)): binds; binding result (14-3-3ε (1-232)): binds; binding result (14-3-3β (1-232)): binds; binding result (14-3-3η (1-235)): binds; binding result [6]: binds; binding result (14-3-3σ WT (1-231) [7]): binds

Q: Does B3 bind (crystal structure)?
A: binds

Q: Does B4 bind (crystal structure)?
A: binds

Q: Does B5 bind (crystal structure)?
A: binds

Q: Does B6 bind (crystal structure)?
A: binds

Q: Does B7 bind (14-3-3σ Clu1 (1-231) [8])?
A: binds

Q: Does B7 bind [5]?
A: binds

Q: Does B7 bind (14-3-3τ (1-230))?
A: binds

Q: Does B7 bind (14-3-3ε (1-232))?
A: binds

Q: Does B7 bind (14-3-3β (1-232))?
A: binds

Q: Does B7 bind (14-3-3η (1-235))?
A: binds

Q: Does B7 bind [6]?
A: binds

Q: Which results are given for B8?
A: binding result (14-3-3σ Clu1 (1-231) [8]): binds; binding result [5]: binds; binding result (14-3-3τ (1-230)): binds; binding result (14-3-3ε (1-232)): binds; binding result (14-3-3β (1-232)): binds; binding result (14-3-3η (1-235)): binds; binding result [6]: binds; binding result (14-3-3σ WT (1-231) [7]): binds
